In article PMC2064262 (The Journal of Cell Biology, 2006):

Biological target: N-syndecan ectodomain IgG fusion protein (UniProt P33671 45-387, glycosylated (proteoglycan fragment with heparan sulfate chains))
Assay: ELISA

Chain of N-syndecan ectodomain IgG fusion protein (P33671 45-387): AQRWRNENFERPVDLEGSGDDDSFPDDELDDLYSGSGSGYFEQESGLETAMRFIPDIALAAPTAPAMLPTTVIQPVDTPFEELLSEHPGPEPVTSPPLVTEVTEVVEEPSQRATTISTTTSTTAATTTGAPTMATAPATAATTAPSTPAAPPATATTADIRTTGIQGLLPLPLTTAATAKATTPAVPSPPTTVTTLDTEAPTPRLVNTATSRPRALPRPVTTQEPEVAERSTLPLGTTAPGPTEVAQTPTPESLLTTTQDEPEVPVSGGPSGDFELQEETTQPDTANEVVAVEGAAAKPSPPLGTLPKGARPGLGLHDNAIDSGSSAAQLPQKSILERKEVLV

Kd | Binder
12 nM | heparin-binding growth-associated molecule (HB-GAM; pleiotrophin) (ligand, UniProt P63090 33-168, looked up) GKKEKPEKKVKKSDCGEWQWSVCVPTSGDCGLGTREGTRTGAECKQTMKTQRCKIPCNWKKQFGAECKYQFQAWGECDLNTALKTRTGSLKRALHNADCQKTVTISKPCGKLTKPKPQAESKKKKKEGKKQEKMLD
15 nM | heparin-binding EGF-like growth factor (HB-EGF), human recombinant (ligand, UniProt Q99075 63-148, looked up) DLQEADLDLLRVTLSSKPQALATPNKEEHGKRKKKGKGLGKKRDPCLRKYKDFCIHGECKYVKELRAPSCICHPGYHGERCHGLSL
